Data published in article PMC7584215, ““The structure of the Type III secretion system export gate with CdsO, an ATPase lever arm”” (PLoS Pathogens, 2020).

B1: CdsV C-terminal region (residues 345-710) from Chlamydia pneumoniae (domain or fragment)
chain: ASTTVGAAGDGAATVGDNPDDYSLTLPVILELGKDLSKLIQHKTKSGQSFVDDMIPKMRQALYQDIGIRYPGIHVRTDSPSLEGYDYMILLNEVPYVRGKIPPHHVLTNEVEDNLSRYNLPFITYKNAAGLPSAWVSEDAKAILEKAAIKYWTPLEVIILHLSYFFHKSSQEFLGIQEVRSMIEFMERSFPDLVKEVTRLIPLQKLTEIFKRLVQEQISIKDLRTILESLSEWAQTEKDTVLLTEYVRSSLKLYISFKFSQGQSAISVYLLDPEIEEMIRGAIKQTSAGSYLALDPDSVNLILKSMRNTITPTPAGGQPPVLLTAIDVRRYVRKLIETEFPDIAVISYQEILPEIRIQPLGRIQIF
notes: CdsV (export gate protein, SctV family), Chlamydia pneumoniae, residues 345-710, the cytoplasmic C-terminal region; Cloned into pET28 with the vector's N-terminal hexa-His tag and thrombin cleavage site; Homo-nonameric ring; also called WT CdsVc; soluble export gate; source: nonameric peak fractions pooled

Assays:
[1] = target: the molecule itself; assay: crystal structure; CdsVC alone; hanging drop, 100 mM HEPES pH 6.75, 5% PEG-6000, 21°C; refined to 2.8 Å
[2] = target: B1; assay: crystal structure; CdsVC mixed with ~10% molar excess of CdsO_(25-110); 100 mM Bis-Tris pH 6.0, 4% PEG 3350, 200 mM ammonium acetate; refined to 4.6 Å; settings: both partners purified
[3] = target: B1; assay: ITC; monomeric CdsO_(25-110) (2.2 mM) titrated into nonameric CdsVc (15.0 uM) or nonameric CdsVc L638A/D639A (12.1 uM); 20°C; 10 mM HEPES pH 7.5, 500 mM NaCl; 24 x 2 uL injections; settings: both partners purified

Binder	stoichiometry N [1]	stoichiometry N [2]	Kd [3] [µM]
B1	9		
CdsO residues 25-110 from Chlamydia pneumoniae (domain or fragment, CdsO (central stalk protein of the T3SS ATPase, SctO family), Chlamydia pneumoniae, residues 25-110 of the 168 residues of full-length CdsO; Cloned into pET28 as CdsV; Called monomeric in the ITC methods; also called CdsO_(25-110); central stalk protein) KEKRRLLEIEQEKLREKEAERDKVKNHYMQKIQQLRDLLDEGTTSDAVLQIKSYIKVVAVQLSEEEEKVNKQKEVVLAASKELEKA		1	28 ± 3
